From patent US20090291081A1 (published 2009)

T1: human IL-1α (human, UniProt P01583 113-271)
T1 chain: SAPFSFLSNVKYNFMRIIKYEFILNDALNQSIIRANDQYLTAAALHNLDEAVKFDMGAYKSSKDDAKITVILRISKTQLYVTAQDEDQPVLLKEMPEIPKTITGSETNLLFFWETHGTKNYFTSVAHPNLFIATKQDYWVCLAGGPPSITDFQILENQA

B1: ABT2-108-538x/ABT1-95-15 scFv on yeast surface (scFv, V domains shown)
VH: EVQLLESGGGLVQPGGSLRLSCAASGFTFADEGMMWVRQAPGKGLEWVSRITYSGKNTYYADSVKGRFTISRDNSKNTLYLQMNSLRAEDTAVYYCAKYTGRILGHHLFDYWGQGTLVTVSS
VL: DIQMTQSPSSLSASVGDRVTITCRASQPIVRNLRWYQQKPGKAPKLLIYSSSYLEPGVPSRFSGSGSGTDFTLTISSLQPEDFATYHCQQGYRWPVTFGQGTKVEIK
B2: ABT2-108-538x/ABT1-95-15 scFv (scFv, V domains shown)
VH: B1 VH
VL: B1 VL

Tests used:
[1] = molecular target: T1, human IL-1α; assay: yeast surface display titration (FACS); unlabelled IL-1α
[2] = molecular target: Bio-IL-1a; assay: yeast surface display titration (FACS); biotinylated IL-1α

Binder	EC50 [1] [nM]	EC50 [2] [nM]
B1	0.664	–
B2	–	0.664
